In the supplement of paper PMC7125110:
± gives the standard error. For part of these data: This sample holds only a part of the variants without activity.

B1: glmS ribozyme (parent)
chain: AUAAAAGCGCCAGAACUACAGAAAUGUAGUUGACGAGGAGGAGGUUUAUCGAAUUUUCGGCGGAUGCCUCCAAA

How the values were obtained:
Conditions in all cases: with glucosamine-6-phosphate
glucosamine-6-phosphate [1] = variants of: B1; test: kcat; higher = faster cleavage; RNA array
Outline: (§1)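 Tiles of sequenced MiSeq chips were imaged over ~14 h at 37 °C. On them, barcoded ribozyme variants had been transcribed in situ by E. coli RNA polymerase and were tracked via a hybridised Cy3 probe while glucosamine-6-phosphate (40 μM to 10 mM) in HEPES/KCl/Mg(OAc)2 buffer flowed in. Per-tile medians, normalised to baseline and to non-cleaving reference variants, were fit to one- or two-exponential decays for kobs, and weighted Michaelis–Menten fits gave kcat and KM.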

glucosamine-6-phosphate [2] = variants of: B1; test: KM; higher = weaker cofactor use; RNA array
Outline: as §1

glucosamine-6-phosphate [3] = variants of: B1; test: self-cleavage kobs at 160 uM GlcN6P; higher = faster cleavage; RNA array
Outline: as §1

glucosamine-6-phosphate [4] = variants of: B1; test: self-cleavage kobs at 640 uM GlcN6P; higher = faster cleavage; RNA array
Outline: as §1

glucosamine-6-phosphate [5] = variants of: B1; test: self-cleavage kobs at 2500 uM GlcN6P; higher = faster cleavage; RNA array
Outline: as §1

glucosamine-6-phosphate [6] = variants of: B1; test: self-cleavage kobs at 10000 uM GlcN6P; higher = faster cleavage; RNA array
Outline: as §1

glucosamine-6-phosphate [7] = variants of: B1; test: self-cleavage kobs at 40 uM GlcN6P; higher = faster cleavage; RNA array
Outline: as §1

## A14G A48G
glucosamine-6-phosphate [1]
  kcat: 0.000249 ± 3.2e-05 s⁻¹
glucosamine-6-phosphate [2]
  KM: 0.648 ± 0.22 mM
glucosamine-6-phosphate [3]
  self-cleavage kobs at 160 uM GlcN6P: 3.64e-05 ± 1.4e-05 s⁻¹
glucosamine-6-phosphate [4]
  self-cleavage kobs at 640 uM GlcN6P: 0.000128 ± 1.4e-05 s⁻¹
glucosamine-6-phosphate [5]
  self-cleavage kobs at 2500 uM GlcN6P: 0.000232 ± 2.6e-05 s⁻¹
glucosamine-6-phosphate [6]
  self-cleavage kobs at 10000 uM GlcN6P: 0.000203 ± 2.9e-05 s⁻¹

## C16G A39G
glucosamine-6-phosphate [1]
  kcat: 0.0108 ± 0.0041 s⁻¹
glucosamine-6-phosphate [7]
  self-cleavage kobs at 40 uM GlcN6P: 0.000228 ± 4.9e-05 s⁻¹
glucosamine-6-phosphate [3]
  self-cleavage kobs at 160 uM GlcN6P: 0.000353 ± 0.00011 s⁻¹
glucosamine-6-phosphate [4]
  self-cleavage kobs at 640 uM GlcN6P: 0.00194 ± 0.00038 s⁻¹
glucosamine-6-phosphate [5]
  self-cleavage kobs at 2500 uM GlcN6P: 0.00841 ± 0.0019 s⁻¹
glucosamine-6-phosphate [6]
  self-cleavage kobs at 10000 uM GlcN6P: 0.00779 ± 0.0013 s⁻¹

## G37A C70U
glucosamine-6-phosphate [1]
  kcat: 0.00286 ± 0.00083 s⁻¹
glucosamine-6-phosphate [2]
  KM: 3.8 ± 1.5 mM
glucosamine-6-phosphate [7]
  self-cleavage kobs at 40 uM GlcN6P: 4.27e-05 ± 6.4e-06 s⁻¹
glucosamine-6-phosphate [3]
  self-cleavage kobs at 160 uM GlcN6P: 9.55e-05 ± 1.5e-05 s⁻¹
glucosamine-6-phosphate [4]
  self-cleavage kobs at 640 uM GlcN6P: 0.000383 ± 4.9e-05 s⁻¹
glucosamine-6-phosphate [5]
  self-cleavage kobs at 2500 uM GlcN6P: 0.0018 ± 0.00029 s⁻¹
glucosamine-6-phosphate [6]
  self-cleavage kobs at 10000 uM GlcN6P: 0.00199 ± 0.00021 s⁻¹

## G13C U69A
glucosamine-6-phosphate [1]
  kcat: 2.51e-05 ± 9.3e-06 s⁻¹
glucosamine-6-phosphate [4]
  self-cleavage kobs at 640 uM GlcN6P: 4.85e-05 ± 2.3e-05 s⁻¹

## A15C U31C
glucosamine-6-phosphate [1]
  kcat: 0.00282 ± 0.00061 s⁻¹
glucosamine-6-phosphate [2]
  KM: 3.83 ± 1.2 mM
glucosamine-6-phosphate [7]
  self-cleavage kobs at 40 uM GlcN6P: 4.49e-05 ± 9.1e-06 s⁻¹
glucosamine-6-phosphate [3]
  self-cleavage kobs at 160 uM GlcN6P: 0.000136 ± 3e-05 s⁻¹
glucosamine-6-phosphate [4]
  self-cleavage kobs at 640 uM GlcN6P: 0.000359 ± 4.3e-05 s⁻¹
glucosamine-6-phosphate [5]
  self-cleavage kobs at 2500 uM GlcN6P: 0.00104 ± 0.00023 s⁻¹
glucosamine-6-phosphate [6]
  self-cleavage kobs at 10000 uM GlcN6P: 0.00211 ± 0.00024 s⁻¹

## G40C C71U
glucosamine-6-phosphate [1]
  kcat: 0.00477 ± 0.0015 s⁻¹
glucosamine-6-phosphate [2]
  KM: 1.73 ± 0.78 mM
glucosamine-6-phosphate [7]
  self-cleavage kobs at 40 uM GlcN6P: 0.000198 ± 2.6e-05 s⁻¹
glucosamine-6-phosphate [3]
  self-cleavage kobs at 160 uM GlcN6P: 0.000335 ± 4.3e-05 s⁻¹
glucosamine-6-phosphate [4]
  self-cleavage kobs at 640 uM GlcN6P: 0.00124 ± 0.00014 s⁻¹
glucosamine-6-phosphate [5]
  self-cleavage kobs at 2500 uM GlcN6P: 0.00328 ± 0.00041 s⁻¹
glucosamine-6-phosphate [6]
  self-cleavage kobs at 10000 uM GlcN6P: 0.00384 ± 0.00053 s⁻¹

## G43A U56G
glucosamine-6-phosphate [1]
  kcat: 4.8e-05 ± 2.6e-07 s⁻¹
glucosamine-6-phosphate [2]
  KM: 3.4 ± 0.058 mM
glucosamine-6-phosphate [6]
  self-cleavage kobs at 10000 uM GlcN6P: 3.58e-05 ± 9e-06 s⁻¹

## C10G C58U
glucosamine-6-phosphate [1]
  kcat: < 1e-05 s⁻¹
glucosamine-6-phosphate [7]
  self-cleavage kobs at 40 uM GlcN6P: < 1e-05 s⁻¹
glucosamine-6-phosphate [4]
  self-cleavage kobs at 640 uM GlcN6P: < 1e-05 s⁻¹
glucosamine-6-phosphate [6]
  self-cleavage kobs at 10000 uM GlcN6P: < 1e-05 s⁻¹

## A33U U54A C70A
glucosamine-6-phosphate [1]
  kcat: 4.75e-05 ± 1.3e-05 s⁻¹
glucosamine-6-phosphate [4]
  self-cleavage kobs at 640 uM GlcN6P: 5.86e-05 ± 2e-05 s⁻¹

## G29U G37A
glucosamine-6-phosphate [1]
  kcat: 0.000503 ± 4.3e-05 s⁻¹
glucosamine-6-phosphate [2]
  KM: 3.47 ± 0.49 mM
glucosamine-6-phosphate [4]
  self-cleavage kobs at 640 uM GlcN6P: 8.23e-05 ± 1.1e-05 s⁻¹
glucosamine-6-phosphate [5]
  self-cleavage kobs at 2500 uM GlcN6P: 0.000188 ± 3.4e-05 s⁻¹
glucosamine-6-phosphate [6]
  self-cleavage kobs at 10000 uM GlcN6P: 0.000383 ± 4.6e-05 s⁻¹

## G32A G40C
glucosamine-6-phosphate [1]
  kcat: 0.00047 ± 8.1e-05 s⁻¹
glucosamine-6-phosphate [2]
  KM: 5.73 ± 1.6 mM
glucosamine-6-phosphate [4]
  self-cleavage kobs at 640 uM GlcN6P: 5.53e-05 ± 9.2e-06 s⁻¹
glucosamine-6-phosphate [5]
  self-cleavage kobs at 2500 uM GlcN6P: 0.000126 ± 1.8e-05 s⁻¹
glucosamine-6-phosphate [6]
  self-cleavage kobs at 10000 uM GlcN6P: 0.000309 ± 3.3e-05 s⁻¹

## C61U U69G
glucosamine-6-phosphate [1]
  kcat: 1.8e-05 ± 3.9e-06 s⁻¹

## G29C G38A
glucosamine-6-phosphate [1]
  kcat: < 1e-05 s⁻¹
glucosamine-6-phosphate [7]
  self-cleavage kobs at 40 uM GlcN6P: < 1e-05 s⁻¹
glucosamine-6-phosphate [6]
  self-cleavage kobs at 10000 uM GlcN6P: < 1e-05 s⁻¹

## A39C U45A
glucosamine-6-phosphate [1]
  kcat: 0.0045 ± 0.001 s⁻¹
glucosamine-6-phosphate [2]
  KM: 1.43 ± 0.55 mM
glucosamine-6-phosphate [7]
  self-cleavage kobs at 40 uM GlcN6P: 0.000226 ± 5.6e-05 s⁻¹
glucosamine-6-phosphate [3]
  self-cleavage kobs at 160 uM GlcN6P: 0.000456 ± 9.8e-05 s⁻¹
glucosamine-6-phosphate [4]
  self-cleavage kobs at 640 uM GlcN6P: 0.00118 ± 0.0002 s⁻¹
glucosamine-6-phosphate [5]
  self-cleavage kobs at 2500 uM GlcN6P: 0.00392 ± 0.001 s⁻¹
glucosamine-6-phosphate [6]
  self-cleavage kobs at 10000 uM GlcN6P: 0.00397 ± 0.00058 s⁻¹

## G51U C68G
glucosamine-6-phosphate [1]
  kcat: 4.24e-05 ± 1.1e-05 s⁻¹
glucosamine-6-phosphate [4]
  self-cleavage kobs at 640 uM GlcN6P: 5.2e-05 ± 9.7e-06 s⁻¹
glucosamine-6-phosphate [5]
  self-cleavage kobs at 2500 uM GlcN6P: 4.27e-05 ± 1e-05 s⁻¹

## A14G U56G
glucosamine-6-phosphate [1]
  kcat: 0.0818 ± 0.014 s⁻¹
glucosamine-6-phosphate [2]
  KM: 1.56 ± 0.32 mM
glucosamine-6-phosphate [7]
  self-cleavage kobs at 40 uM GlcN6P: 0.00201 ± 0.00033 s⁻¹
glucosamine-6-phosphate [3]
  self-cleavage kobs at 160 uM GlcN6P: 0.0087 ± 0.0018 s⁻¹
glucosamine-6-phosphate [4]
  self-cleavage kobs at 640 uM GlcN6P: 0.0223 ± 0.0035 s⁻¹
glucosamine-6-phosphate [5]
  self-cleavage kobs at 2500 uM GlcN6P: 0.0673 ± 0.027 s⁻¹
glucosamine-6-phosphate [6]
  self-cleavage kobs at 10000 uM GlcN6P: 0.0704 ± 0.02 s⁻¹
